The values that follow are results of earlier work, collected in publication PMC5319408.

In the data set the target is cytochrome P450cam (CYP101, oxidized) (Pseudomonas putida) (UniProt P00183).
UniProt P00183, sequence (P00183 2-415): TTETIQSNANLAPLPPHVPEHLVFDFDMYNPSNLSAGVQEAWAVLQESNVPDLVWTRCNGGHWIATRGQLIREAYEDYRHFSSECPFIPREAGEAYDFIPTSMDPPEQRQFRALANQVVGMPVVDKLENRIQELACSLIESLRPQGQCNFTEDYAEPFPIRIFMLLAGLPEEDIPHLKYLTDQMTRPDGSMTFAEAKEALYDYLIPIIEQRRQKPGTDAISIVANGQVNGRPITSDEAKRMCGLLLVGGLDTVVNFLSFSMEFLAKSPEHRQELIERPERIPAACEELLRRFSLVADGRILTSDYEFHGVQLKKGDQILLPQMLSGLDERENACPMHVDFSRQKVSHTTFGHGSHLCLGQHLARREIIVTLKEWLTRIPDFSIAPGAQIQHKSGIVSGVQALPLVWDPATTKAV

Broadly, the Kd is the equilibrium constant for the complex coming apart. “putidaredoxin (oxidized) (from UniProt P00259)”: the Kd was 17 µM.
